This note sets out measurements from paper PMC5026484 (eLife, 2016).

The target of one series is T1, Rab10 residues 1-175 (human, UniProt P61026 1-175).
T1 construct: Rab10, human, residues 1-175; Used for the crystal of the 2:1 complex with Mical-1 918-1067; also called Rab10_(1-175); source: expressed and purified as described previously (Bleimling et al., 2009)
T1 sequence (looked up): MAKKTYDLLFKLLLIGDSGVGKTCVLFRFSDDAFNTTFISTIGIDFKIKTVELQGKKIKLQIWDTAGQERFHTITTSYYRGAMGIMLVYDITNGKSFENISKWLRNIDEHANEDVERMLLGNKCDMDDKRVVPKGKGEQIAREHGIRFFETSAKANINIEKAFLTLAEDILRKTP
Nature of the series: crystal structure; X-ray; sitting/hanging-drop vapour diffusion, 20°C; data from beamline X10SA, SLS. Conditions: both partners purified.

Series [1] has as its target T2, Rab10, full length, loaded with GppNHp (human, UniProt P61026 1-200).
T2 construct: Rab10, human; Rab10Fl in the crystallisation methods; also called Rab10Fl; source: expressed and purified as described previously (Bleimling et al., 2009), loaded with GppNHp, gel filtration
T2 sequence (looked up): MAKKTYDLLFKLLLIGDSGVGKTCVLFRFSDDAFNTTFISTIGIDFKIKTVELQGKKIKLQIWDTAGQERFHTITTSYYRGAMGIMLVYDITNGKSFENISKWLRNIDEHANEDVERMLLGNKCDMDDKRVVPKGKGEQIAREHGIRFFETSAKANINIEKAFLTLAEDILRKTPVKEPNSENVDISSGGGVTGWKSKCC
The series can be described thus: SEC; analytical size exclusion chromatography, Superdex S75 10/300 GL; 130 µM Rab:GppNHp + 112.5 µM (113 µM) bMERB domain; 20 mM Hepes pH 7.5, 50 mM NaCl, 2 mM DTE, 2 mM MgCl2. Conditions: both partners purified. A general note: Size exclusion chromatography separates by hydrodynamic size, large species first.

The target of series [2] is T3, Rab8a, full length, loaded with GppNHp (human, UniProt P61006 1-207).
T3 construct: Rab8a, human; called Rab8 in the results and Rab8aFl in the crystallisation methods; also called Rab8aFl; source: expressed and purified as described previously (Bleimling et al., 2009), loaded with GppNHp, gel filtration
T3 sequence (looked up): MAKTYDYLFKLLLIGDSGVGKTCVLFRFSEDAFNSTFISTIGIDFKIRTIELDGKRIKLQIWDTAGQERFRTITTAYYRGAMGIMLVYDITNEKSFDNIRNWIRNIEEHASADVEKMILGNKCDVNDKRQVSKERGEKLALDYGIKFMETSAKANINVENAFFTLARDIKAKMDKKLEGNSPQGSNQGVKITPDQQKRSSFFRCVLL
Described as above. To be noted: both partners purified.

Series [3] deals with the molecule itself. Nature of the series: crystal structure; X-ray; sitting/hanging-drop vapour diffusion, 20°C; data from beamline X10SA, SLS.

B1: bMERB domain (Rab binding domain) of Mical-1, residues 918-1067 (domain or fragment, human, UniProt Q8TDZ2 918-1067, looked up)
chain: KEEEMKRFCKAQTIQRRLNEIEAALRELEAEGVKLELALRRQSSSPEQQKKLWVGQLLQLVDKKNSLVAEEAELMITVQELNLEEKQWQLDQELRGYMNREENLKTAADRQAEDQVLRKLVDLVNQRDALIRFQEERRLSELALGTGAQG
notes: Mical-1, human, bMERB domain, residues 918-1067 (isoform 1); Limits are stated for the crystallised construct; also called Mical-1_(918-1067); RBD of Mical-1
On to B1, for which the binding result (with Rab10 residues 1-175; in series [1]; in series [2]) was “binds” in each case.

B2: Selenomethionine derivative of Mical-3 residues 1841-1990 (domain or fragment, human, UniProt Q7RTP6 1841-1990, looked up)
chain: KQEELKRLHRAQIIQRQLQQVEERQRRLEERGVAVEKALRGEAGMGKKDDPKLMQEWFKLVQEKNAMVRYESELMIFARELELEDRQSRLQQELRERMAVEDHLKTEEELSEEKQILNEMLEVVEQRDSLVALLEEQRLREREEDKDLEA
modifications: selenomethionine in place of methionine
notes: Mical-3, human, whole predicted bMERB domain, residues 1841-1990 (isoform 1); printed elsewhere as 1841-1992; Two copies in the asymmetric unit of the crystal; also called SeMet Mical-3; seleno-L-methionine labelled Mical-3_(1841–1990)
As for B2, the binding result in series [3] is “binds”.
